Test results from patent US20240101702A1 (PRECISION BIOLOGICS, published 2024).

Target: T1, CEACAM8 (human, UniProt P31997 35-320, limits assumed)
T1 sequence (looked up): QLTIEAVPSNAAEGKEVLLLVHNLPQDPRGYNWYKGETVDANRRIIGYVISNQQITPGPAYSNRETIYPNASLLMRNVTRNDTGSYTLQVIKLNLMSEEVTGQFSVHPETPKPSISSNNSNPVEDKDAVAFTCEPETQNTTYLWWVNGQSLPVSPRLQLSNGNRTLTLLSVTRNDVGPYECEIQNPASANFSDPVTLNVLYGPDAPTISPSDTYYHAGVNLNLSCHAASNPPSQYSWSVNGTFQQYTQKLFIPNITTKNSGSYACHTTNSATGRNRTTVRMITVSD
Assay: in vitro assays using human tumor cell lines (method not detailed)

binding result: no binding
B1: NEO-201 humanized IgG1 monoclonal antibody (antibody, V domains shown)
VH: QVQLVQSGAEVKKPGASVKVSCKASGYTFTDYAMHWVRQAPGQRLEWMGLISTYSGDTKYNQNFQGRVTMTVDKSASTAYMELSSLRSEDTAVYYCARGDYSGSRYWFAYWGQGTLVTVSS
VL: DIQMTQSPSSLSASVGDRVTITCQASENIYGALNWYQRKPGKSPKLLIYGASNLATGMPSRFSGSGSGTDYTFTISSLQPEDIATYYCQQVLSSPYTFGGGTKLEIKR
notes: also called h16C3; H16C3-Abb*
